Measurements published in patent US8187838B2, “β-Galactoside-α2, 6-sialyltransferase, a gene encoding thereof, and a method for producing thereof” (Japan Tobacco Inc., priority 2006, dated 2012).
“Also recorded” adds a separate entry of the source.

How the values were obtained:
[1] = Sialyltransferase activity in homogenate of E. coli carrying the JT-ISH-224 gene clones (14C-NeuAc transfer to lactose); type: biochemical
Experimental: Sialyltransferase activity was measured as described in J. Biochem., 120, 104-110 (1996) (which is hereby incorporated by reference in its entirety). More specifically, the enzymatic reaction was accomplished by using CMP-NeuAc (70 nmol, containing about 20,000 cpm CMP-NeuAc in which NeuAc was labeled with ^14C; NeuAc represents N-acetylneuraminic acid) as a glycosyl donor substrate, lactose (1.25 μmol) as a glycosyl acceptor substrate, NaCl added to give a concentration of 0.5 M, and the enzyme-containing reaction solution (30 μl) prepared as described above. The enzymatic reaction was carried out at 25° C. for about 10 to 180 minutes. After completion of the reaction, 1.97 ml of 5 mM phosphate buffer (pH 6.8) was added to the reaction solution, which was then applied to a Dowex 1×8 (PO4^3− form, 0.2×2 cm, BIO-RAD) column. The radioactivity was measured for the reaction product, i.e., sialyllactose contained in the eluate (0 to 2 ml) from this column to calculate the enzyme activity. One enzyme unit (1 U) is defined as the amount of enzyme required to transfer 1 micromole of sialic acid per minute.
An induction experiment of protein expression was performed on the five clones obtained in (3) above (i.e., ISH224-N0C0/pTrc, ISH224-N1C0/pTrc, ISH224-N2C0/pTrc, ISH224-N3C0/pTrc and ISH224-N3.1C0/pTrc). A single colony of E. coli TB1 having the expression vector pTrc99A carrying each clone was inoculated into LB medium (6 ml) containing an antibiotic, ampicillin (final concentration 100 μg/mL), and pre-cultured at 30° C. to about A600=0.5, followed by addition of IPTG (isopropyl-β-D(−)-thiogalactopyranoside, Wako Pure Chemical Industries, Ltd., Japan) at a final concentration of 1 mM. After culturing with shaking at 30° C. for an additional 4 hours, the cells in 4 ml culture solution were collected by centrifugation. These cells were suspended in 200 μl of 20 mM Bis-Tris buffer (pH 7.0) containing 0.336% Triton® X-100 and 0.5 M sodium chloride, and ultrasonically homogenized under ice cooling. The resulting homogenate was defined as a crude enzyme solution, diluted 200-fold with 20 mM cacodylate buffer (pH 5.0) containing 0.336% Triton® X-100, and then provided for activity measurement. The reaction was carried out in duplicate. The reaction conditions are as indicated in the footnotes of Tables 1-1 and 1-2.
(§1) Reaction Conditions Reaction composition:
Reaction time: 2 minutes Reaction temperature: 30° C.

[2] = Time-dependent induction of expression, sialyltransferase activity and productivity in E. coli homogenate; type: biochemical; conditions: for Total enzyme activity (unit): 0.3 L culture; for Amount of transferred sialic acid / Radioactivity (CPM): 1 minute, 30° C.; for Radioactivity (CPM): crude enzyme diluted 200-fold
Experimental: A time-dependent induction experiment of protein expression was performed on the ISH224-N0C0 and ISH224-N1C0 clones obtained in Example 2. A single colony of E. coli TB1 having the expression vector pTrc99A carrying each clone was inoculated into LB medium (6 ml) containing an antibiotic, ampicillin (final concentration 100 μg/mL), and pre-cultured at 30° C. for about 8 hours. This pre-cultured solution was inoculated into LB medium (300 ml) containing and antibiotic, ampicillin (final concentration 100 μg/mL) and cultured with shaking at 30° C. When OD600 reached around 0.5, IPTG (isopropyl-β-D(−)-thiogalactopyranoside, Wako Pure Chemical Industries, Ltd., Japan) was added at a final concentration of 1 mM, followed by culturing with shaking at 30° C. At 4, 6, 22 and 28 hours after culturing, the cells in each culture solution were collected by centrifugation. These cells were suspended in 20 mM Bis-Tris buffer (pH 6.0) containing 0.336% […] Triton® X-100, and ultrasonically homogenized under ice cooling. The resulting homogenate was defined as a crude enzyme solution, diluted 200-fold with 20 mM cacodylate buffer (pH 5.0) containing 0.336% Triton X®-100, and then provided for activity measurement. The reaction was carried out in duplicate. The reaction conditions are as indicated in the footnote of Table 2.
as §1
Reaction time: 1 minute Reaction temperature: 30° C.

B1: ISH224-N1C0 (protein, listed as Photobacterium sp.)
chain: MSEENTQSIIKNDINKTIIDEEYVNLEPINQSNISFTKHSWVQTCGTQQLLTEQNKESISLSVVAPRLDDDEKYCFDFNGVSNKGEKYITKVTLNVVAPSLEVYVDHASLPTLQQLMDIIKSEEENPTAQRYIAWGRIVPTDEQMKELNITSFALINNHTPADLVQEIVKQAQTKHRLNVKLSSNTAHSFDNLVPILKELNSFNNVTVTNIDLYDDGSAEYVNLYNWRDTLNKTDNLKIGKDYLEDVINGINEDTSNTGTSSVYNWQKLYPANYHFLRKDYLTLEPSLHELRDYIGDSLKQMQWDGFKKFNSKQQELFLSIVNFDKQKLQNEYNSSNLPNFVFTGTTVWAGNHEREYYAKQQINVINNAINESSPHYLGNSYDLFFKGHPGGGIINTLIMQNYPSMVDIPSKISFEVLMMTDMLPDAVAGIASSLYFTIPAEKIKFIVFTSTETITDRETALRSPLVQVMIKLGIVKEENVLFWADLPNCETGVCIAV
Radioactivity (cpm) Round 1 ([1]; crude enzyme solution diluted 200-fold, lactose, 14C-CMP-sialic acid, 2 minutes, 30° C., Round 1): 1552 cpm | Radioactivity (cpm) Round 2 ([1]; crude enzyme solution diluted 200-fold, lactose, 14C-CMP-sialic acid, 2 minutes, 30° C., Round 2): 1711 cpm | Radioactivity (cpm) Average ([1]; crude enzyme solution diluted 200-fold, lactose, 14C-CMP-sialic acid, 2 minutes, 30° C., average of duplicate): 1631.5 cpm | sialyltransferase activity of the expressed clone (in words) ([1]; crude enzyme solution from E. coli TB1, listed as ISH224-N1C0/pTrc): expressed sialyltransferase; also recorded: retained the activity | fold higher productivity than Pasteurella multocida-derived α2,3-sialyltransferase (6,000 U/L) [2]: about 1.8 fold | fold higher productivity than Photobacterium damselae-derived recombinant β-galactoside-α2,6-sialyltransferase (224.5 U/L) [2]: about 48 fold | Enzyme concentration in crude enzyme solution (unit/ml) ([2]; 4 hours after IPTG addition): 6.8 unit/ml | Productivity (U/L of medium) ([2]; 4 hours after IPTG addition): 589 U/L of medium | Total enzyme activity (unit) ([2]; 4 hours after IPTG addition): 177 unit | Amount of transferred sialic acid ([2]; 4 hours after IPTG addition): 0.17 nmol | Radioactivity (CPM) ([2]; 4 hours after IPTG addition): 142.5 CPM | Enzyme concentration in crude enzyme solution (unit/ml) ([2]; 6 hours after IPTG addition): 14.8 unit/ml | Productivity (U/L of medium) ([2]; 6 hours after IPTG addition): 1285 U/L of medium | Total enzyme activity (unit) ([2]; 6 hours after IPTG addition): 385 unit | Amount of transferred sialic acid ([2]; 6 hours after IPTG addition): 0.37 nmol | Radioactivity (CPM) ([2]; 6 hours after IPTG addition): 311.0 CPM | Enzyme concentration in crude enzyme solution (unit/ml) ([2]; 22 hours after IPTG addition): 86.2 unit/ml | Productivity (U/L of medium) ([2]; 22 hours after IPTG addition): 10776 U/L of medium | Total enzyme activity (unit) ([2]; 22 hours after IPTG addition): 3233 unit | Amount of transferred sialic acid ([2]; 22 hours after IPTG addition): 2.16 nmol | Radioactivity (CPM) ([2]; 22 hours after IPTG addition): 1809.0 CPM | Productivity (U/L of medium) ([2]; 22 hours after IPTG addition, listed as ISH224-N1C0 clone): 10,776 U/L of medium | Enzyme concentration in crude enzyme solution (unit/ml) ([2]; 28 hours after IPTG addition): 69.5 unit/ml | Productivity (U/L of medium) ([2]; 28 hours after IPTG addition): 8946 U/L of medium | Total enzyme activity (unit) ([2]; 28 hours after IPTG addition): 2684 unit | Amount of transferred sialic acid ([2]; 28 hours after IPTG addition): 1.74 nmol | Radioactivity (CPM) ([2]; 28 hours after IPTG addition): 1459.0 CPM | time of maximum β-galactoside-α2,6-sialyltransferase activity after IPTG addition ([2]; culture at 30° C., 1 mM IPTG): 22 h
